Laboratory results from patent US20150024957, “Methods and Devices for Detection and Measurement of Analytes” (THE UNIVERSITY OF TOLEDO, published 2015).

Target: Bovine serum albumin (BSA) (Bos taurus, UniProt P02769 P02769:25-607)
Assay: SPR; 400 nM BSA; minimal effect on response of aptamer sensor
Details: tags: Sigma Aldrich
Experimental: Non-coated (i.e., no gold) SensiQ base sensors were custom modified with the developed gold based SPR sensing surfaces. Specifically, freshly prepared aptamer-immobilized gold substrates were coupled to the stripped sensors with index matching optical oil. This was followed by then loading of 100 μL 1 M ethanolamine (EA) at a flow rate of 20 μL/min to block the non-occupied MPA sites activated by the EDC/NHS, followed by an injection of 100 μL of 100 mM phosphoric acid (PPA) at 50 μL/min to remove the non-specific binding. The running buffer was 0.1 M pH 7.2 PBS. The sensor was first normalized with the buffer for 10 min, then the thrombin sample (25 μL) at concentrations of 5 nM, 25 nM, 50 nM, 250 nM 500 nM, 1000 nM, 2000 nM were loaded at 5 μL/min. Samples with BSA were all prepared with 400 nM BSA. All data was recorded at 290 s, 300 s, and 310 s after the sample injection and averaged. Sensor regeneration was performed by the injection of 100 μL PPA at 50 μL/min followed by washing with the running buffer.
Adding BSA to the sample had minimal effect on the SPR response for the aptamer modified sensors, indicating a good selectivity of the sensor toward thrombin. This is in contrast to the bare Au sensor, which experienced a significant change between the thrombin samples with, and without, BSA. […]

Bovine serum albumin (BSA), sequence (P02769 25-607, one chain of several): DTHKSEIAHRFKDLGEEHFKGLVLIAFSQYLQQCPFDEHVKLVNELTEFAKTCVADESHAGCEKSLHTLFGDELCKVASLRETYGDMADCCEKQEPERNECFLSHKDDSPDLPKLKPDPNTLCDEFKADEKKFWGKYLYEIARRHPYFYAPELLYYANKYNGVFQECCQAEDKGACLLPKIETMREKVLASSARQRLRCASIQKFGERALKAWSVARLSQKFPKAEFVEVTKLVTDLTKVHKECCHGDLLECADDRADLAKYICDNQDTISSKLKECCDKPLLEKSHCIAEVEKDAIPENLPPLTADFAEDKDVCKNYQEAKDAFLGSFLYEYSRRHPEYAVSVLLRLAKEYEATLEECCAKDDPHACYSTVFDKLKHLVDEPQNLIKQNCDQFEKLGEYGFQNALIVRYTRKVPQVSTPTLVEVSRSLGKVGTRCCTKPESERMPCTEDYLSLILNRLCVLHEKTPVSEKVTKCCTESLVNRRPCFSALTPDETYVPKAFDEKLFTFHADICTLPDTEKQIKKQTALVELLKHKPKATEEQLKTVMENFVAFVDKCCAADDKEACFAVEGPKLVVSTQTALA

| Binder | binding result |
| --- | --- |
| GGTTGGTGTGGTTGG (ssDNA, 5'-NH2-(CH2)6) [APT1 (15-mer thrombin aptamer)] | no binding |
| CTATCAGTCCGTGGTAGGGCAGGTTGGGGTGACT (ssDNA, 5'-NH2-(CH2)6) [APT2 (34-mer thrombin aptamer)] | no binding |
